Biological target: biotinylated soluble IA^b-p3K (mouse)
Experiment: SPR

- Kd: 9 µM
Substance: soluble YAe62 TCR
